# Target: prostate specific membrane antigen (PSMA) (UniProt Q04609)
# Test: flow cytometry on LnCAP prostate cancer cells
# Chain of UniProt Q04609 (Q04609 whole entry): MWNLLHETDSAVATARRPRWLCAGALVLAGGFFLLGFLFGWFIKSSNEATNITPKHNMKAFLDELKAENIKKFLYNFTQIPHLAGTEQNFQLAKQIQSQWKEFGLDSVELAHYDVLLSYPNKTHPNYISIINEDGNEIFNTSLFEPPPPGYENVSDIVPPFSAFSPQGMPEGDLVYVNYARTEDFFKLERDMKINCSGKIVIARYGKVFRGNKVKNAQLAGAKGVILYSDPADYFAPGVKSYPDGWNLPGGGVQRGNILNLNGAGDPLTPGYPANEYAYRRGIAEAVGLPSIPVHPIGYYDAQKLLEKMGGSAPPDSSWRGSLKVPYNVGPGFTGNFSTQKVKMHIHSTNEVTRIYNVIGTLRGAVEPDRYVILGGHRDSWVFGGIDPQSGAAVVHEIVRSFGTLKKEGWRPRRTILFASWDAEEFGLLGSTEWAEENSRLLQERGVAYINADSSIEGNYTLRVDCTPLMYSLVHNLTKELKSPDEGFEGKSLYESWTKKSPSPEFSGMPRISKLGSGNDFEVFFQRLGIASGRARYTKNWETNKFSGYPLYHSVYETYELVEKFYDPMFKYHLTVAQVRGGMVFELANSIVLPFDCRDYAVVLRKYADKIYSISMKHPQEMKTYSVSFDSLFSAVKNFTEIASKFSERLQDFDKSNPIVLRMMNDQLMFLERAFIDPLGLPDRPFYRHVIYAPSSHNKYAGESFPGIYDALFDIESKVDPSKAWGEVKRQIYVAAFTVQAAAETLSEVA
substance,measurement,value
antibody 7E11 (ATCC #FB 10494) recognizing prostate specific membrane antigen,flow cytometry on LnCAP (% positive),58%
